# Experimental data reported in the nanobody polyreactivity screen of Harvey et al. (2022).
# Test: yeast display, Sf9 membrane polyspecificity reagent, FACS + sequencing; frameworks hold sequencing errors
# How it was run: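 A synthetic nanobody library was expressed on Saccharomyces cerevisiae BJ5465 by galactose induction for 36–48 hours. The library was stained for 1 hour at 4 °C with 10% biotinylated, detergent-solubilized Sf9 membrane reagent and enriched with streptavidin microbeads before FACS. Low and high (top ~1%) gates were set on anti-HA fluorescence for expression and streptavidin fluorescence for reagent binding, and each polyreactivity label reflects the gate of origin.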
row,Sequence,polyreactivity (PSR sort gate)
1,QVQLVESGGGLVQAGGSLRLSCAASGSTFIGNAMGRYRQAPGKERELVAAITRSGGSTFYADSVKGRFTISRDYAKNTVYLQMNSLKPEDTAVYYCAARTRRGLARYDYWGQGTQVTVSS,high polyreactivity
2,QVQLVESGGGLVQAGGSLRLSCAASGSTFIGNAMGWYRQAPGKERELVAAITRSGGSTFYADSVKGRFTISRDNAKNTVYLQMNSLKPEDTAVYYCSAKGNPYRVPGSSYPKVNYWGQGTQVTVSS,high polyreactivity
3,QVQLVESGGGLVQAGGSLRLSCAASGSTFIGYAMGWYRQAPGKDRELVAAITRSGGRTYYADSVKGRFTISRDNAKNTVYLQMNSLKPEVSAVYYCAARVKGQWNTYDYWGQGTQVTVSS,high polyreactivity
4,QVQLVESGGGLVQAGGSLRLSCAASGSTFIHNAMGWYRQAPRKERELVAAITSGGSTYYADSVKGRFTISRDNAKNTVYLQMNSLKPEDTAVYYCNRGSWRYSTMEYWGQGTQVTVSS,high polyreactivity
5,QVQLVESGGGLVQAGGSLRLSCAASGSTFIKNAMGWYRQAPGKERELVAAIPWGGGSTYYADSVKGRFTISRDNAKNTVYLQMNSLKPEDTAVYYCAAGNDIWRYYGYDYWGQGTQVTVSS,low polyreactivity
6,QVQLVESGGGLVQAGGSLRLSCAASGSTFILKAMGWYRQAPGKERELVATISSSDTSPYYADSVKGRFTISRDTAKNTVYLQMNSLKPEDTAVYYCNADYYTTSYLQRVYHYGVDYDYWGQGTQVTVSS,low polyreactivity
7,QVQLVESGGGLVQAGGSLRLSCAASGSTFILNAMGWYRQAPGKERELVATISSSDTSTYYADSVKGRFTISRDNAKNTVYLLMNSLKPDDTAVYFCNADYYTTSYLQRVYHYGVEYDYWGQGTQVTLSS,low polyreactivity
8,QVQLVESGGGLVQAGGSLRLSCAASGSTFIPNAMGWYRQAPGKERELVAAITYRGGRTYYADSVKGRFTISRDNAKYTVYLQLNSLKPEDTAVYYCAADFWYNQVRFYYWGQGTQVTVSS,high polyreactivity
9,QVQLVESGGGLVQAGGSLRLSCAASGSTFIPYAMGWYRQAPGKERELVARITWSDTSTYYADSVKGRFTISRDNAKNTVYLHMNSVKPEDTAVYYCAAKEFSLARGARPRYYYWGQGTQVTVSS,high polyreactivity
10,QVQLVESGGGLVQAGGSLRLSCAASGSTFIRYAMGWYRQAPGKERELVAAITWRGGSTYYADSVKGRFTISRDNAKNTVYLQMNSLKPEDTAVYYCAARDRDTRNYYWGQGTQVTVSS,high polyreactivity
11,QVQLVESGGGLVQAGGSLRLSCAASGSTFISNTMGWYRQAPGKERELVAAITRTGGRTYYADSVKGRFTISRDNAKNTVYLQMNSLKPEDTAVYYCARYGGYWSLKYDYWGQGTQVTVSS,high polyreactivity
12,QVQLVESGGGLVQAGGSLRLSCAASGSTFISYAMGWYRQAPGKERELVAAISSGGGRTSYADSVKGRFTISRDNAKNTVYLQMNSLKPEDTAVYYCNTKKLPYAEGYWGQGTQVTVSS,low polyreactivity
13,QVQLVESGGGLVQAGGSLRLSCAASGSTFISYAMGWYRQAPGKEREMVAAISWDGGSTYYADSVKGRFTISRDNAKNTVYLQMNSLKPEDTAVYYCNAEYDGAAGRYEYWGPGTQVTVSS,low polyreactivity
14,QVQLVESGGGLVQAGGSLRLSCAASGSTFIWNGMGWYRQAPGKERELVAAITSSSTNYADSVKGRFTISRDNAKNTVYLQMNSLKPEDTAVYYCAAEIYPLGSLRLGPGEYDHWGQGTQVTVSS,low polyreactivity
15,QVQLVESGGGLVQAGGSLRLSCAASGSTFIYNALGWYRQAPGKERELVAAISSGGSTYYADSVKGRFTISRDNAKNSVYLQMNSLKPEDTAVYYCAAKGFPRSGYPYQAQHMYYWGQGTQVTVSS,low polyreactivity
16,QVQLVESGGGLVQAGGSLRLSCAASGSTFIYYAMGWNRQAPGKERELVDSISRSGGSTYYADSVKGRFTISRDNAKNTVYLQMNSLKPEDTAVYYCARAYRSSFNYWGQGTQVTVSS,high polyreactivity
17,QVQLVESGGGLVQAGGSLRLSCAASGSTFIYYAMGWYRQAPGKEREFVAAISYRGGSTYYADSVKGRFTISRDNAKNTVYLQMNSLKPEDTAVYYCAASYRKWNDYWGQGTQVNVSS,high polyreactivity
18,QVQLVESGGGLVQAGGSLRLSCAASGSTFIYYAMGWYRQAPGKERELVAAISGSGASTYYADSVKGRFTISRDNAKNTVYLQMNSLKPEDTAVYYCHFYRWRGYDYWGQGTQVTVSS,high polyreactivity
19,QVQLVESGGGLVQAGGSLRLSCAASGSTFIYYTMGWYRQAPGKERELVAASSWSGGNTYYADSVKGRFTISRDNAKNTVYLQMNSLKPEDTAVYYCAATRFSQYDWGQGTQVTVSS,high polyreactivity
20,QVQLVESGGGLVQAGGSLRLSCAASGSTFIYYVKGWYRQAPGNERELVAAISGRTGSTYYADSVKGRFTISRDNAKNTVYLQMNSLTPEDTAVYYCAKRGFLYWDHVSGFYRYDYWGQGTQVTVSS,low polyreactivity
21,QVQLVESGGGLVQAGGSLRLSCAASGSTFKAYAMGWYRQAPGKERELVAAITKSGGRTYYADSVKGRFTISRDNAKNTVYLQMISLKPEDTAVYYCAAVFRPDSSAYRYYYWGQGTQVTVSS,high polyreactivity
22,QVQLVESGGGLVQAGGSLRLSCAASGSTFKAYAMGWYRQAPGKERELVAAITKSGGRTYYADSVKGRFTISRDNAKNTVYLQMNSLKPEDTAVYYCAAVFRPDSSAYRYYYWGQGTQVTVSS,high polyreactivity

row,Sequence,polyreactivity (PSR sort gate)
1,QVQLVESGGGLVQAGGSLRLSCAASGSTFKAYAMGWYRQAPGKERELVAAITNSDGDTYYADSVKGRFTISRDNAKNTVYLQMNSLKAEDTAVYYCNALYFLKKLYDYWGQGTQVTVSS,low polyreactivity
2,QVQLVESGGGLVQAGGSLRLSCAASGSTFKAYVMGWYRQAPGKERELVAVISRSGGTTYYADSVKGRFTISRDNAKNTVYLQMNSLKPEDTAVYYCAAQWRYQYPESLESYYWGQGTQVTVSS,high polyreactivity
3,QVQLVESGGGLVQAGGSLRLSCAASGSTFKFYAMGWYRQAPGKERELVAAISRSGGSTYYADSVKGRFTLSRDNAKNTVYLQMNSLKPEDTAGYYCAAERTLKSDYWGQGTQVTVSS,high polyreactivity
4,QVQLVESGGGLVQAGGSLRLSCAASGSTFKFYGVGWYRQAPGKERQLVASITSSSGPTYYADSVKGRFTISRDNAKYTVYLQLNSLKPEDPAVYDCNKAWRRYWLRGDYWGQGKQVTVSS,low polyreactivity
5,QVQLVESGGGLVQAGGSLRLSCAASGSTFKIYAMGWYRQAPGKERELVAAITRGGSTNYADSVKGRFTISRDNAKNTVYLQMNSLKPEDTAVYYCAASYWYRRYGTYTYDYWGQGTQVTVSS,high polyreactivity
6,QVQLVESGGGLVQAGGSLRLSCAASGSTFKIYAMGWYRQAPGKEREVVARITGRGGSTYYADSVKGRFTISRDNAKNTVYLQMNSLKPEDTAVYYCAAAKRYYSEMYWGQGTQVTVSS,high polyreactivity
7,QVQLVESGGGLVQAGGSLRLSCAASGSTFKRNAMGWYRQAPGKERELVAAISFRGGSTYYADSVKGRFTISRDNAKNTVYLQMNSLKPEDTAVYYCAAGIYRIRGGGISFDYWGQGTQVTVSS,high polyreactivity
8,QVQLVESGGGLVQAGGSLRLSCAASGSTFKRYAMGWYRQAPGKERELVAAISRRGGSTYYADSVKGRFTISRDNAKNTVYLQMNSLKPEDTAVYYCAARIASHLYYYWGQGTQVTVSS,high polyreactivity
9,QVQLVESGGGLVQAGGSLRLSCAASGSTFKRYAMGWYRQAPGKERELVASISQRGGTTYYADSVKGRFTISRDNAKNTVDLQMNSLKPEDTAVYYCAKGFGWTRTIYDYWGQGTQVTVSS,high polyreactivity
10,QVQLVESGGGLVQAGGSLRLSCAASGSTFKRYARGWYRQAPGKEREFVAGISSRGSRTYYADSVKGRFTISRDNAKNTVYLQMNSLKPEDTAVYYCAVSGNHVSPPYGYWGQGTQVTVSS,high polyreactivity
11,QVQLVESGGGLVQAGGSLRLSCAASGSTFKRYSMGWYRQAPGKERELVASISGRGGGTYYADSVKGRFTISRDNEKNTVYLQMNSLIPEDTAVYYCAAYGRYYGFDYWGLGTQVTVSS,high polyreactivity
12,QVQLVESGGGLVQAGGSLRLSCAASGSTFKWYAMGWYRQAPGKERELVAAISSRGGSTYYADSVKGRFTISRDNAKNTVYLQMNSLKPEDTAVYYCNALVRPQWSYNDFDYWGQGTQVTVSS,high polyreactivity
13,QVQLVESGGGLVQAGGSLRLSCAASGSTFKWYAMGWYRQAPGKERELVAGISWTGASTYYADSVKGRFTISRDNAKNTVYLQMNSLKPDDTAVYYCAADRTYFALLWTGRARYDYWGQGTQVTVSS,high polyreactivity
14,QVQLVESGGGLVQAGGSLRLSCAASGSTFKWYGMGWYRQAPGKERELVATINYSSSTTYYADSVKGRFTISRDNAKNTVYLQMNSLKPEDTAVYYCAKGVYWGTKSTYDYWGQGTQVTVSS,high polyreactivity
15,QVQLVESGGGLVQAGGSLRLSCAASGSTFKYNTMGWYRQAPGKERELVATISTGGSTYYADSVKGRFTISRDNAKNTVYLQMNSLKPEDTAVYYCAADGARRNTYRYDYWGQGTQVTVSS,low polyreactivity
16,QVQLVESGGGLVQAGGSLRLSCAASGSTFKYYAMGWYRQAPGKERELVARISSGGNTKYADSVKGRFTISRDNAMNTVYLQMNSLKPEDTAVYYCAAGYPGVGYAYDYWGQGTQVTVSS,high polyreactivity
17,QVQLVESGGGLVQAGGSLRLSCAASGSTFKYYPMGWYRQAPGKERELVAAITSTGSTNYADSVKGRFTISRDNAKNTVYLQMNSRKPEDTAVYYCAKKYFYSTYYSWGHGTQVTVSS,low polyreactivity
18,QVQLVESGGGLVQAGGSLRLSCAASGSTFLDYAMGWYRQAPGKDRELVAAISTDDSSTYYADSVKGRFTISRDNAKNTVYLQMNSLKPEDTAVYYCAADDRDWVNFDYWGQGTQVTVSS,low polyreactivity
19,QVQLVESGGGLVQAGGSLRLSCAASGSTFLEYARGWSRQAPGKERELVATITGGGGTNYADSVKGRFTISRDNAKNTVYLQMNSLKPEETAVYYCAADYGGAYEYGYWGQGTQVTVSS,low polyreactivity
20,QVQLVESGGGLVQAGGSLRLSCAASGSTFLFYAMGWYRQAPGKERELVAAISSSGTSTYYADSVKGRFTISRDNAKNTVYLQMNSLKPEDTAVYYCAAVDPYERYVYWGQGTQVTVSS,low polyreactivity
21,QVQLVESGGGLVQAGGSLRLSCAASGSTFLFYDMGWYRHAAGKERELVAAIRWSGGSTYADSVKGRFTISRDNAKNTVYLQMNSLKPVDTAVYYCATTYRPTFRRHYNYWGQGTQVTVSS,low polyreactivity
